The labels stand for the following.
B1: AgApiT (UGT94AX1) (Apium graveolens) (protein)
chain: MGSENAKTRILMFPYLAYGHISPFVELAKQLTKRNFHIYLCSTPINLASVKKRADEDDNIQLLEFHLPSSPELPPRYHCSTGLPAELNPVLLRVFENAGPVFVDILKDIKPDLVIYDFMPSWPAQVALSLNIQVVYFSIFPVPMCCLPLHDSKRAGEKFPYQNVVIPQSPNRFALMASRNLLNCFEKTCKFALVKGLREVEGKYIDLLSDLADKDIIAVGPLVHVSMEKEDDKTKSILKWLDSKEKSSVVFVCFGSESYLSAEETIEMANALETTKCNFIWAMKFPQEKKDSVQLPDGFVERVGELGMILDGWVPQTMILGHPSTGVFLSHCGWSSVNESMKFGVPIIGMPMRYDLALIAKLVVEIGVGMEIVKNNQGKFDREGIVNVLRKVLEDGSEVKAKATELSLKINEKGEEDLDKAAEELMQICRNKKEIQG
notes: full ORF, codon-optimized synthetic gene, pCold ProS2, E. coli BL21(DE3); His/ProS2 tag cut off with HRV3C protease; 49 kDa
B2: AgApiT (UGT94AX1) (Apium graveolens; I139V) (protein)
chain: B1 chain with I139V
notes: as for B1
B3: AgApiT (UGT94AX1) (Apium graveolens; L356Q) (protein)
chain: B1 chain with L356Q
notes: as for B1

Numbering of substitutions follows the chain as printed. Names may count otherwise.

Substrate in the first series: O=c1cc(-c2ccc(O)cc2)oc2cc(O[C@@H]3O[C@H](CO)[C@@H](O)[C@H](O)[C@H]3O)cc(O)c12
Put plainly: reversed-phase HPLC glycosyltransferase assay, Michaelis-Menten nonlinear fit. Type of series: biochemical, Apium graveolens. Conditions: donor UDP-Api, 200 mM Tris-HCl, 50 mM NaCl, pH 7.0, 23 °C. The text has this:
(§1) reversed-phase HPLC glycosyltransferase assay, Michaelis-Menten nonlinear fit on AgApiT (UGT94AX1)
Take B1: the Km came out at 15 ± 3 µM, the kcat was 0.00088 ± 5e-05 s⁻¹ and the kcat/Km is 58 ± 15 M⁻¹ s⁻¹.

Turning to B2, the Michaelis constant (Km) worked out at 17 ± 1 µM, the kcat is 0.00083 ± 7e-05 s⁻¹ and the kcat/Km was determined as 50 ± 18 M⁻¹ s⁻¹.

Consider B3, for which the Km was 52 ± 9 µM, the kcat is 0.00021 ± 2e-05 s⁻¹ and the kcat/Km was 2.1 ± 0.3 M⁻¹ s⁻¹.

Substrate in the next series: O=c1ccn([C@@H]2O[C@H](COP(=O)(O)OP(=O)(O)O[C@H]3OC[C@](O)(CO)[C@H]3O)[C@@H](O)[C@H]2O)c(=O)[nH]1
Described as above. Type of series: biochemical, Apium graveolens. As to conditions: acceptor apigenin 7-O-glucoside, 200 mM Tris-HCl, 50 mM NaCl, pH 7.0, 23 °C.
From the text: as §1
Turning to B1, the Km was determined as 8.6 ± 0.6 µM, the catalytic constant (kcat) worked out at 0.00065 ± 1e-05 s⁻¹ and the kcat/Km was 76 ± 6 M⁻¹ s⁻¹.

For B2, the Km amounted to 17 ± 1 µM, the kcat was determined as 0.00047 ± 1e-05 s⁻¹ and the catalytic efficiency (kcat/Km) amounted to 28 ± 3 M⁻¹ s⁻¹.

For B3, the Km turned out to be 390 ± 60 µM, the catalytic constant (kcat) was determined as 0.00014 ± 1e-05 s⁻¹ and the kcat/Km was 0.36 ± 0.08 M⁻¹ s⁻¹.

The Km is the concentration of substrate that gives half-maximal velocity. A word on the kcat: it is the maximal rate divided by the concentration of active sites. Broadly, the kcat/Km is the turnover number divided by the Michaelis constant.

The values above are taken from article PMC10602602, “The apiosyltransferase celery UGT94AX1 catalyzes the biosynthesis of the flavone glycoside apiin” (Plant Physiology, 2023).
